# How the values were obtained:
# [1] = target: HLA-A*24:02; assay: IEDB peptide-MHC binding, purified MHC/competitive/fluorescence; filed as Kd, often an IC50 or EC50 that approximates it; ≥ and ≤ were set here for values at or beyond the usual limits of such assays
# [2] = target: HLA-C*04:01; assay: IEDB peptide-MHC binding, purified MHC/direct/fluorescence; filed as Kd, often an IC50 or EC50 that approximates it; ≥ and ≤ were set here for values at or beyond the usual limits of such assays; conditions: source organism: Influenza A virus (A/turkey/Ohio/313053/2004(H3N2))
# [3] = target: HLA-B*27:05; assay: IEDB peptide-MHC binding, purified MHC/competitive/fluorescence; ≥ and ≤ were set here for values at or beyond the usual limits of such assays
# [4] = target: HLA-B*46:01; assay: IEDB peptide-MHC binding, purified MHC/direct/fluorescence; filed as Kd, often an IC50 or EC50 that approximates it; ≥ and ≤ were set here for values at or beyond the usual limits of such assays
# [5] = target: HLA-B*07:02; assay: as above
# [6] = target: HLA-A*11:01; assay: as above
# [7] = target: HLA-A*03:01; assay: as above
# [8] = target: HLA-B*15:01; assay: as above
# [9] = target: HLA-B*40:01; assay: as above
# [10] = target: HLA-A*69:01; assay: as above; conditions: source organism: Yersinia pestis
# [11] = target: HLA-A*02:01; assay: as above
# [12] = target: HLA-B*15:02; assay: as above
# [13] = target: HLA-B*27:05; assay: as above
# [14] = target: HLA-A*31:01; assay: as above
# [15] = target: HLA-A*26:01; assay: as above; conditions: source organism: Yersinia pestis
# [16] = target: HLA-B*58:01; assay: as above
# [17] = target: HLA-B*08:01; assay: as above; conditions: source organism: Yersinia pestis
# [18] = target: HLA-A*69:01; assay: IEDB peptide-MHC binding, purified MHC/competitive/fluorescence; filed as Kd, often an IC50 or EC50 that approximates it; ≥ and ≤ were set here for values at or beyond the usual limits of such assays; conditions: source organism: Giardia lamblia ATCC 50803
# [19] = target: HLA-B*15:17; assay: as above; conditions: source organism: Giardia lamblia ATCC 50803
# [20] = target: HLA-B*48:01; assay: IEDB peptide-MHC binding, purified MHC/direct/fluorescence; filed as Kd, often an IC50 or EC50 that approximates it; ≥ and ≤ were set here for values at or beyond the usual limits of such assays
# [21] = target: HLA-B*15:09; assay: as above
# [22] = target: HLA-B*57:01; assay: as above
# [23] = target: HLA-B*08:02; assay: as above
# [24] = target: HLA-B*38:01; assay: as above; conditions: source organism: Giardia lamblia ATCC 50803
# [25] = target: HLA-B*39:01; assay: as above
# [26] = target: HLA-A*01:01; assay: as above
# [27] = target: HLA-B*44:02; assay: as above
# [28] = target: HLA-B*35:01; assay: as above; conditions: source organism: Yersinia pestis
# [29] = target: HLA-B*46:01; assay: IEDB peptide-MHC binding, purified MHC/competitive/fluorescence; filed as Kd, often an IC50 or EC50 that approximates it; ≥ and ≤ were set here for values at or beyond the usual limits of such assays; conditions: source organism: Campylobacter jejuni subsp. jejuni NCTC 11168 = ATCC 700819
# [30] = target: HLA-A*32:07; assay: as above; conditions: source organism: Campylobacter jejuni subsp. jejuni NCTC 11168 = ATCC 700819
# [31] = target: HLA-B*15:42; assay: as above
# [32] = target: HLA-B*83:01; assay: as above
# [33] = target: HLA-B*45:06; assay: as above
# [34] = target: HLA-B*40:13; assay: as above
# [35] = target: HLA-C*06:02; assay: IEDB peptide-MHC binding, purified MHC/direct/fluorescence; filed as Kd, often an IC50 or EC50 that approximates it; ≥ and ≤ were set here for values at or beyond the usual limits of such assays; conditions: source organism: Campylobacter jejuni subsp. jejuni NCTC 11168 = ATCC 700819
# [36] = target: HLA-A*68:23; assay: IEDB peptide-MHC binding, purified MHC/competitive/fluorescence; filed as Kd, often an IC50 or EC50 that approximates it; ≥ and ≤ were set here for values at or beyond the usual limits of such assays
# [37] = target: HLA-A*29:02; assay: IEDB peptide-MHC binding, purified MHC/direct/fluorescence; filed as Kd, often an IC50 or EC50 that approximates it; ≥ and ≤ were set here for values at or beyond the usual limits of such assays; conditions: source organism: West Nile virus
# [38] = target: HLA-B*18:01; assay: as above; conditions: source organism: West Nile virus
# [39] = target: HLA-C*05:01; assay: as above; conditions: source organism: West Nile virus
# [40] = target: HLA-B*27:20; assay: IEDB peptide-MHC binding, purified MHC/competitive/fluorescence; filed as Kd, often an IC50 or EC50 that approximates it; ≥ and ≤ were set here for values at or beyond the usual limits of such assays; conditions: source organism: Escherichia coli 536
# [41] = target: HLA-B*40:01; assay: as above; conditions: source organism: Escherichia coli 536
# [42] = source organism: Yersinia pestis
# [43] = source organism: Giardia lamblia ATCC 50803
# [44] = source organism: Campylobacter jejuni subsp. jejuni NCTC 11168 = ATCC 700819
# [45] = source organism: Mycobacterium tuberculosis variant bovis BCG str. Pasteur 1173P2
# [46] = source organism: West Nile virus
# [47] = source organism: Escherichia coli 536
sequence,measurement,setting,value
RYSGFVRTL,Kd,[1]; source organism: Influenza A virus (A/turkey/Ohio/313053/2004(H3N2)),0.0011 µM
same,Kd,[2],≥ 20 µM
RRFFPYYV,IC50,[3]; source organism: Homo sapiens,3.2 µM
RQLESRLGY,Kd,[4]; [42],≥ 20 µM
same,Kd,[5]; [42],≥ 20 µM
same,Kd,[6]; [42],0.13 µM
same,Kd,[7]; [42],0.0616 µM
same,Kd,[8]; [42],0.146 µM
same,Kd,[9]; [42],3.74 µM
same,Kd,[10],≥ 20 µM
same,Kd,[11]; [42],≥ 20 µM
same,Kd,[12]; source organism: Yersinia enterocolitica subsp. enterocolitica 8081,0.077 µM
same,Kd,[13]; [42],0.0656 µM
same,Kd,[14]; [42],0.288 µM
same,Kd,[15],≥ 20 µM
same,Kd,[16]; [42],≥ 20 µM
same,Kd,[17],≥ 20 µM
MYSDFHFI,Kd,[1]; source organism: Influenza A virus (A/X-31(H3N2)),0.146 µM
ETESVNSNY,Kd,[18],≥ 20 µM
same,Kd,[19],≥ 20 µM
same,Kd,[4]; [43],≥ 20 µM
same,Kd,[5]; [43],≥ 20 µM
same,Kd,[6]; [43],≥ 20 µM
same,Kd,[7]; [43],≥ 20 µM
same,Kd,[8]; [43],≥ 20 µM
same,Kd,[9]; [43],≥ 20 µM
same,Kd,[20]; [43],≥ 20 µM
same,Kd,[21]; [43],≥ 20 µM
same,Kd,[11]; [43],≥ 20 µM
same,Kd,[13]; [43],≥ 20 µM
same,Kd,[22]; [43],≥ 20 µM
same,Kd,[14]; [43],≥ 20 µM
same,Kd,[23]; [43],≥ 20 µM
same,Kd,[16]; [43],≥ 20 µM
same,Kd,[24],≥ 20 µM
same,Kd,[25]; [43],≥ 20 µM
same,Kd,[26]; [43],0.0188 µM
GGAAICGKY,IC50,[3]; source organism: Hepacivirus hominis,≥ 750 µM
MQLQLNCAY,Kd,[4]; [42],≥ 20 µM
same,Kd,[5]; [42],≥ 10 µM
same,Kd,[6]; [42],≥ 20 µM
same,Kd,[7]; [42],≥ 20 µM
same,Kd,[8]; [42],0.112 µM
same,Kd,[9]; [42],0.705 µM
same,Kd,[10],1.33 µM
same,Kd,[11]; [42],≥ 20 µM
same,Kd,[12]; source organism: Yersinia pestis CA88-4125,0.015 µM
same,Kd,[27]; [42],≥ 20 µM
same,Kd,[13]; [42],≥ 20 µM
same,Kd,[14]; [42],6.35 µM
same,Kd,[15],≥ 20 µM
same,Kd,[28],0.0337 µM
same,Kd,[17],≥ 20 µM
same,Kd,[26]; [42],2.77 µM
YMKKRYEEF,Kd,[29],0.188 µM
same,Kd,[30],0.232 µM
same,Kd,[31]; [44],≥ 5 µM
same,Kd,[32]; [44],≥ 5 µM
same,Kd,[33]; [44],≥ 5 µM
same,Kd,[34]; [44],0.326 µM
same,Kd,[35],≥ 20 µM
same,Kd,[23]; source organism: Campylobacter jejuni subsp. jejuni 81116,0.127 µM
TTFDLTLRR,Kd,[36]; [45],0.0121 µM
same,Kd,[31]; [45],≥ 5 µM
same,Kd,[32]; [45],≥ 5 µM
same,Kd,[33]; [45],≥ 5 µM
TSDYINTSL,Kd,[4]; [46],≥ 20 µM
same,Kd,[6]; [46],≥ 20 µM
same,Kd,[7]; [46],≥ 20 µM
same,Kd,[8]; [46],≥ 20 µM
same,Kd,[9]; [46],≥ 20 µM
same,Kd,[20]; [46],≥ 20 µM
same,Kd,[37],≥ 20 µM
same,Kd,[21]; source organism: West Nile virus strain PTRoxo,≥ 5 µM
same,Kd,[38],≥ 20 µM
same,Kd,[27]; [46],≥ 20 µM
same,Kd,[13]; [46],≥ 20 µM
same,Kd,[22]; [46],≥ 20 µM
same,Kd,[14]; [46],≥ 20 µM
same,Kd,[39],0.21 µM
same,Kd,[16]; [46],≥ 20 µM
same,Kd,[25]; [46],1.48 µM
KEMGFSPRL,Kd,[40],0.176 µM
same,Kd,[36]; [47],0.121 µM
same,Kd,[41],0.0103 µM
same,Kd,[31]; [47],≥ 5 µM
same,Kd,[32]; [47],≥ 5 µM
same,Kd,[33]; [47],≥ 5 µM
same,Kd,[34]; [47],0.0336 µM

# Source: the Immune Epitope Database (IEDB)
